From patent publication US20240150474A1 (Regeneron, published 2024)

How the values were obtained:
[1] = target: T1, full length human ACVR1 (amino acids 1-509, R206H, of accession #Q04771) on HEK293/BRE-luc/hACVR1-R206H-clone … (human, UniProt Q04771 21-509); assay: flow cytometry, 70 nM antibody on HEK293/hACVR1-R206H cells, 4C
T1 construct: Expressed as amino acids 1-509; also called HEK293/hACVR1-R206H
T1 sequence: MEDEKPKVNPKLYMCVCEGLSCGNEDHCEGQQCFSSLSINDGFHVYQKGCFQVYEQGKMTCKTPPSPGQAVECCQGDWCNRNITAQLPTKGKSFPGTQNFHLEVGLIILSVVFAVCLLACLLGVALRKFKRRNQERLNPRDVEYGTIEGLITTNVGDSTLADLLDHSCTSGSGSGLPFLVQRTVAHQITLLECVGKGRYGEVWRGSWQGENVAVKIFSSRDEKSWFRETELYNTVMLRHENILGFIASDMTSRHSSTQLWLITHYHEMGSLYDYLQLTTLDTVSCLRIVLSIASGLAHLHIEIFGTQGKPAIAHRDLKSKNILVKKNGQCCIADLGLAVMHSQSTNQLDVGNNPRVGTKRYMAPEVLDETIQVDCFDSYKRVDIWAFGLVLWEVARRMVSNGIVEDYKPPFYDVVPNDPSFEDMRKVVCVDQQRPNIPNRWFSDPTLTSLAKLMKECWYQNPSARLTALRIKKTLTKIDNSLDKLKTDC
Experimental: To assess binding of the anti-ACVR1 antibodies of the invention to ACVR1 receptors expressed on the cell surface, 70 nM of the antibodies were incubated with 5×10⁵ cells/well at 4° C. for 30 minutes in PBS (without calcium and magnesium) containing 2% FBS (flow buffer). […] Cells were fixed using BD CytoFix™ (Becton Dickinson, # 554655) and analyzed on IQue® Flow Cytometer (Intellicyt®). Unstained and secondary antibody alone controls were also tested on cells. The results were analyzed using ForeCyt® (IntelliCyt®) software to determine the geometric means of fluorescence for viable cells and the binding ratio was calculated by normalizing the geometric mean value of the test condition by the geometric mean value of the corresponding unstained cells.

dimeric human ACVR1 = target: T2, dimeric human ACVR1 (human, UniProt Q04771 21-123, limits assumed); assay: SPR Biacore T200, mAb captured by anti-human Fab, 100 nM dimeric receptor injected, 25C
T2 construct: ACVR1'; also called Human Receptor ACVR1
T2 sequence (looked up): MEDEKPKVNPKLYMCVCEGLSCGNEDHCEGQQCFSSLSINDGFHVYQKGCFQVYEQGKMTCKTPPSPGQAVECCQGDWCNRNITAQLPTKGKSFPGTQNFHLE
Experimental: (§1) ACVR1 mAbs were tested for cross-reactivity to a panel of bone morphogenic protein type 1 receptors including human and mouse ACVR1, BMPR1A, and BMPR1B, as well as ACVRL1 on a Biacore T200 as follows. In order to measure the specificity of ACVR1 mAbs, ACVR1 mAbs were captured with anti-human Fab immobilized on a CM5 chip. 100 nM or 10 nM of dimeric human or mouse ACVR1, ACVRL1, BMPR1A or BMPR1B were injected at 30 μL/min for 2 min (duplicate injections) and the experiment was performed at 25° C. Binding of different receptors to the captured mAb was determined using Scrubber 2.0c software.

dimeric human ACVRL1 = target: T3, dimeric human ACVRL1 (human, UniProt P37023 22-118, limits assumed); assay: as above
T3 construct: Construct and dimerising part not described; also called Human Receptor ACVRL1
Experimental: as §1

dimeric human BMPR1A = target: T4, dimeric human BMPR1A (human, UniProt P36894 24-152, limits assumed); assay: as above
T4 construct: Construct and dimerising part not described; also called Human Receptor BMPR1A
Experimental: as §1

dimeric human BMPR1B = target: T5, dimeric human BMPR1B (human, UniProt O00238 14-126, limits assumed); assay: as above
T5 construct: Construct and dimerising part not described; also called Human Receptor BMPR1B
T5 sequence (looked up): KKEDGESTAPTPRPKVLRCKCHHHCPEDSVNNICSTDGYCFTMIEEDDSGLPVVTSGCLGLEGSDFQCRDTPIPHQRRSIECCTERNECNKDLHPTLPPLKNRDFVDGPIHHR
Experimental: as §1

dimeric mouse ACVR1 = target: T6, dimeric mouse ACVR1 (mouse, UniProt P37172 21-123, limits assumed); assay: as above
T6 construct: also called Mouse Receptor ACVR1
T6 sequence (looked up): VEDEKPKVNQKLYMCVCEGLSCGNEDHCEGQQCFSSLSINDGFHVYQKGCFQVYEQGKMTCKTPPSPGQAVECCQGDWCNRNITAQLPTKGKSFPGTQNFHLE
Experimental: as §1

dimeric mouse ACVRL1 = target: T7, dimeric mouse ACVRL1 (mouse, UniProt Q61288 23-119, limits assumed); assay: as above
T7 construct: Construct and dimerising part not described; also called Mouse Receptor ACVRL1
T7 sequence (looked up): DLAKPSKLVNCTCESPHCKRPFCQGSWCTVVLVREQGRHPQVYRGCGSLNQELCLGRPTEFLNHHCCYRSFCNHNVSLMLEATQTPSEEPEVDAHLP
Experimental: as §1

dimeric mouse BMPR1A = target: T8, dimeric mouse BMPR1A (mouse, UniProt P36895 24-152, limits assumed); assay: as above
T8 construct: Construct and dimerising part not described; also called Mouse Receptor BMPR1A
Experimental: as §1

dimeric mouse BMPR1B = target: T9, dimeric mouse BMPR1B (mouse, UniProt P36898 14-126, limits assumed); assay: as above
T9 construct: Construct and dimerising part not described; also called Mouse Receptor BMPR1B
T9 sequence (looked up): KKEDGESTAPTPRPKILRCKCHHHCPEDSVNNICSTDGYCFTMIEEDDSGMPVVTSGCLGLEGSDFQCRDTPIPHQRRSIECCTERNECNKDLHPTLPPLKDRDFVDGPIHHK
Experimental: as §1

T8 sequence (P36895 24-152 limits assumed): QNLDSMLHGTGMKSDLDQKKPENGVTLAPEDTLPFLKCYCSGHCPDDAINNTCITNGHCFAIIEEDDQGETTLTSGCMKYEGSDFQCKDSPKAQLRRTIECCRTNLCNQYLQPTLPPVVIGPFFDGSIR
T3 sequence (P37023 22-118 limits assumed): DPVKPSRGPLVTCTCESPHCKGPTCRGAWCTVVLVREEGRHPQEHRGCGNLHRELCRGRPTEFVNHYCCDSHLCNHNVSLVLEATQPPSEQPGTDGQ
T4 sequence (P36894 24-152 limits assumed): as the sequence (P36895 24-152 limits assumed) above, with L16S, P21S, T74A counted along it

Binder	MFI-Normalized to Unstained Control [1] [fold]	100 nM Human Receptor Binding (dimeric human ACVR1) [RU]	100 nM Human Receptor Binding (dimeric human ACVRL1) [RU]	100 nM Human Receptor Binding (dimeric human BMPR1A) [RU]	100 nM Human Receptor Binding (dimeric human BMPR1B) [RU]	100 nM Mouse Receptor Binding (dimeric mouse ACVR1) [RU]	100 nM Mouse Receptor Binding (dimeric mouse ACVRL1) [RU]	100 nM Mouse Receptor Binding (dimeric mouse BMPR1A) [RU]	100 nM Mouse Receptor Binding (dimeric mouse BMPR1B) [RU]
REGN 5168 (antibody, human IgG4 S228P, kappa, V domains shown, also called REGN 5168-L1) VH: QVQLVQSGAEVKEPGASVKVSCKASGYTFAEYYMHWVRQAPGQGLEWMGAINPSGSHTSYAQKFQGRVTMTRDTSTSTVYMELSSLRSEDTAVYYCARSISGKRGGDYYGMDVWGQGTTVTVSS VL: DIQMTQSPSTLSASVGDRVTITCRASQSISSWLAWYQQKPGKAPKLLIYKASSLESGVPSRFSGSGSGTEFTLTISSLQPDDFATYYCQQYSIFPFTFGGGTKVEIKR	2250	147	2	2	20	140	3	8	1
REGN 5167 (antibody, human IgG4 S228P, kappa, V domains shown, also called REGN 5167-L1) VH: QLQLQESGPGLVKPSETLSLTCTVSGGSITSSSYYWAWIRQPPGKGLEWIGKIYYSGSTHYNPSLKSRVTISVDTSKNQFSLKLSSVTAADTAVYYCARVGGHGYGDSAGLAFDIWGQGTMVTVSS VL: EIVLTQSPGTLSLSPGERATLSCRASQSVSSAFLAWYQQKPGQAPRLLIYGASYRHTGIPDRFSGSGSGTDFTLTISRLEPEDFAVYYCQHYGVGPRTFGGGTKVEIKR	1870	130	1	2	10	130	1	3	1
REGN 5166 (antibody, human IgG4 S228P, kappa, V domains shown, also called REGN 5166-L1) VH: QVQLVESGGGVVQPGRSLRLSCAASGFTFSAYWMHWVRQAPGKGLEWVAVISYDGSNKYYADSVKGRFTISRDHSKNTLYLQMNSLRAEDTAVYYCAKGDAYDSWRILLGGDYYGMDVWGQGTTVTVSS VL: EIVLTQSPGTLSLSPGERATLSCRASQSVSSSYLAWYQQKPGQAPRPLIYGASSRATGIPDRFSGSGSGTDFTLTISRLEPEDFAVYYCQQGGDAPPYTFGGGTKVEIKR	2000	147	4	2	24	141	4	9	1
